Literature values, collected in paper PMC11087986.
Where two headings read alike, the source gives them in different places.

Assays:
[1] = biological target: RBM39 RRM1-RRM2 (Homo sapiens) (UniProt Q14498)
[2] = biological target: RBM39 RRM1-RRM2 (Homo sapiens) (UniProt Q14498); remark: listed apart in the source
[3] = biological target: RBM39 RRM1-RRM2 (Homo sapiens) (UniProt Q14498); remark: listed apart in the source

Chain of UniProt Q14498 (Q14498 153-328): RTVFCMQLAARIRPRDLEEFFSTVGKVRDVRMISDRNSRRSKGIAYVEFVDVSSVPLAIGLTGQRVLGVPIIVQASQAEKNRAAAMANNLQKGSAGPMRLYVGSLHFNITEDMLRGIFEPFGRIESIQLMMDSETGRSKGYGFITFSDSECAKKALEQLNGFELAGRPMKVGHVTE

Kd [1]: 160 nM | Kd [2]: 4600 nM | Kd [3]: 120 nM
Substance: DCAF15 (from UniProt Q66K64)
